Data from the Human Domainome abundance scans (Beltran et al. 2025).
± gives the uncertainty stated by the source.

B1: Tumor protein p73, residues 487 to 549; numbered along this chain, O15350 (parent)
chain: YHADPSLVSFLTGLGCPNCIEYFTSQGLQSIYHLQNLTIEDLGALKIPEQYRMTIWRGLQDLK

Variants of: B1
Assay: abundance fitness (aPCA) (normalised: wild type 0, dead -1); higher = more abundant; growth selection in yeast, the domain comes from the species named
Details: Homo sapiens

| Variant | abundance fitness |
| --- | --- |
| S6E | 0.126 ± 0.048 |
| S6V | -0.027 ± 0.043 |
| S6Y | -0.197 ± 0.16 |
| S6N | -0.076 ± 0.21 |
| S6W | -0.212 ± 0.061 |
| S6H | -0.077 ± 0.089 |
| S6L | -0.15 ± 0.056 |
| G13A | -0.021 ± 0.035 |
| G13W | -0.315 ± 0.051 |
| G13Y | -0.185 ± 0.093 |
| G13R | 0.008 ± 0.031 |
| L42Y | -0.02 ± 0.098 |
| L42H | -0.577 ± 0.17 |
| L42V | -0.127 ± 0.028 |
| L42P | -0.696 ± 0.11 |
| L42Q | -0.512 ± 0.063 |
| L42C | -0.494 ± 0.15 |
| L42D | -0.618 ± 0.33 |
| L42G | -0.654 ± 0.05 |
| L42R | -0.733 ± 0.051 |
| L42F | 0.012 ± 0.07 |
| L42A | -0.447 ± 0.048 |
| L45I | 0.067 ± 0.076 |
| L45W | -0.345 ± 0.047 |

| Variant | abundance fitness |
| --- | --- |
| L45D | -0.609 ± 0.15 |
| L45S | -0.272 ± 0.04 |
| L45R | -0.241 ± 0.032 |
| A44L | 0.06 ± 0.034 |
| A44T | -0.046 ± 0.063 |
| A44Y | -0.007 ± 0.067 |
| I39W | -0.231 ± 0.32 |
| I39M | -0.149 ± 0.27 |
| F23I | -0.277 ± 0.14 |
| F23A | -0.971 ± 0.14 |
| F23L | -0.182 ± 0.037 |
| F23D | -1.18 ± 0.19 |
| F23T | -0.978 ± 0.13 |
| F23Y | -0.638 ± 0.12 |
| F23C | -0.315 ± 0.053 |
| F23V | -0.618 ± 0.049 |
| F23S | -1.03 ± 0.087 |
| N18E | 0.033 ± 0.042 |
| N18M | -0.163 ± 0.047 |
| N18C | -0.125 ± 0.095 |
| N18S | -0.12 ± 0.042 |
| N18A | 0.042 ± 0.038 |
| N18Y | -0.167 ± 0.062 |
| Y51K | 0.034 ± 0.1 |

| Variant | abundance fitness |
| --- | --- |
| Y51E | -0.09 ± 0.049 |
| Y51M | -0.189 ± 0.048 |
| Y51R | -0.137 ± 0.04 |
| Y51A | -0.005 ± 0.076 |
| H2A | -0.094 ± 0.061 |
| H2W | 0.119 ± 0.063 |
| H2N | 0.216 ± 0.07 |
| H2L | 0.202 ± 0.044 |
| H2V | -0.004 ± 0.043 |
| H2P | 0 ± 0.15 |
| G58R | -0.197 ± 0.046 |
| G58L | -1.02 ± 0.1 |
| G58H | -0.116 ± 0.11 |
| K46Y | -0.301 ± 0.1 |
| K46N | 0.009 ± 0.057 |
| K46I | -0.345 ± 0.084 |
| K46F | -0.142 ± 0.085 |
| P17I | -0.122 ± 0.087 |
| P17H | -0.031 ± 0.1 |
| P17V | 0.007 ± 0.035 |
| P17Q | 0.106 ± 0.053 |
| P17E | 0.047 ± 0.039 |
| P17T | 0.028 ± 0.048 |
| G15V | -0.606 ± 0.059 |

| Variant | abundance fitness |
| --- | --- |
| G15C | -0.226 ± 0.063 |
| G15Q | -0.124 ± 0.037 |
| G15K | -0.062 ± 0.058 |
| G15R | -0.153 ± 0.034 |
| I20Q | -0.082 ± 0.046 |
| I20N | -0.282 ± 0.044 |
| I20W | -0.36 ± 0.05 |
| I20P | -0.626 ± 0.056 |
| I20H | -0.069 ± 0.044 |
| Q26C | -0.057 ± 0.052 |
| Q26W | -0.286 ± 0.042 |
| Q26M | -0.207 ± 0.044 |
| Q26Y | -0.32 ± 0.098 |
| Q26E | 0.011 ± 0.038 |
| Q26T | -0.082 ± 0.06 |
| Q26R | 0.001 ± 0.034 |
| Q26G | -0.034 ± 0.035 |
| E40S | -0.048 ± 0.053 |
| E40G | 0.053 ± 0.043 |
| E40Y | -0.215 ± 0.13 |
| E40K | -0.141 ± 0.069 |
| E40W | -0.085 ± 0.044 |
| Y1C | -0.172 ± 0.076 |
| Y1G | -0.285 ± 0.051 |

| Variant | abundance fitness |
| --- | --- |
| Y1R | -0.175 ± 0.054 |
| Y1F | 0.201 ± 0.078 |
| Y1L | 0.075 ± 0.059 |
| Y1E | 0.01 ± 0.063 |
| Y1V | 0.173 ± 0.044 |
| E49Q | -0.045 ± 0.064 |
| E49A | 0.007 ± 0.039 |
| E49T | -0.036 ± 0.041 |
| E49R | 0.028 ± 0.039 |
| E49P | 0.026 ± 0.066 |
| E49K | -0.014 ± 0.05 |
| F10W | -0.296 ± 0.037 |
| F10M | -0.424 ± 0.053 |
| F10R | -0.962 ± 0.079 |
| F10H | -0.971 ± 0.18 |
| F10D | -1.06 ± 0.16 |
| F10E | -1.02 ± 0.17 |
| F10S | -0.867 ± 0.083 |
| Q35E | 0.005 ± 0.066 |
| Q35T | -0.084 ± 0.042 |
| Q35D | 0.073 ± 0.08 |
| Q35A | -0.019 ± 0.042 |
| Q35H | 0.026 ± 0.055 |
| Q35S | 0.071 ± 0.043 |

| Variant | abundance fitness |
| --- | --- |
| Q35P | -0.184 ± 0.073 |
| Q35V | 0.055 ± 0.046 |
| L59Q | -0.554 ± 0.092 |
| L59G | -0.538 ± 0.075 |
| L59M | -0.042 ± 0.078 |
| L59W | -0.213 ± 0.05 |
| L59R | -0.733 ± 0.063 |
| A3H | 0.101 ± 0.094 |
| A3Y | 0.201 ± 0.072 |
| A3I | 0.405 ± 0.089 |
| A3R | 0.326 ± 0.028 |
| A3M | 0.349 ± 0.12 |
| T12E | 0.114 ± 0.044 |
| T12M | 0.021 ± 0.045 |
| T12L | -0.146 ± 0.034 |
| T12K | 0.087 ± 0.051 |
| R57L | -0.069 ± 0.038 |
| R57N | -0.134 ± 0.11 |
| R57T | 0.024 ± 0.054 |
| R57A | -0.068 ± 0.041 |
| R57H | 0.012 ± 0.12 |
| D41M | -0.184 ± 0.075 |
| D41P | -1.05 ± 0.15 |
| D41F | -0.689 ± 0.16 |

| Variant | abundance fitness |
| --- | --- |
| D41Y | -0.45 ± 0.089 |
| D41S | 0 ± 0.031 |
| D41N | -0.042 ± 0.057 |
| D61M | -0.002 ± 0.053 |
| D61L | -0.087 ± 0.041 |
| D61W | -0.127 ± 0.056 |
| D61T | -0.003 ± 0.035 |
| D61C | -0.245 ± 0.11 |
| D61I | 0.006 ± 0.046 |
| E21K | -0.048 ± 0.052 |
| E21T | -0.054 ± 0.063 |
| E21H | -0.089 ± 0.061 |
| E21R | -0.009 ± 0.03 |
| E21N | -0.037 ± 0.098 |
| W56I | 0.086 ± 0.058 |
| W56R | -0.163 ± 0.029 |
| W56Q | 0.035 ± 0.046 |
| W56N | -0.137 ± 0.08 |
| Q60V | -0.041 ± 0.034 |
| Q60G | -0.027 ± 0.03 |
| Q60M | 0.031 ± 0.046 |
| Q60L | -0.013 ± 0.04 |
| Q60Y | 0.06 ± 0.1 |
